Publication PMC7337384

Target: SARS-CoV-2 S-protein receptor-binding domain fused to the Fc domain of human IgG1 (SARS-CoV-2) (UniProt P0DTC2)
Assay: SPR

Substance: soluble monomeric R. macrotis ACE2 (domain or fragment)
- Kd: 4.6 µM
